The source of these data is article PMC5018360 (2017).

In this assay the target is T1, MCL-1 (Mus musculus, UniProt P97287).
T1 chain: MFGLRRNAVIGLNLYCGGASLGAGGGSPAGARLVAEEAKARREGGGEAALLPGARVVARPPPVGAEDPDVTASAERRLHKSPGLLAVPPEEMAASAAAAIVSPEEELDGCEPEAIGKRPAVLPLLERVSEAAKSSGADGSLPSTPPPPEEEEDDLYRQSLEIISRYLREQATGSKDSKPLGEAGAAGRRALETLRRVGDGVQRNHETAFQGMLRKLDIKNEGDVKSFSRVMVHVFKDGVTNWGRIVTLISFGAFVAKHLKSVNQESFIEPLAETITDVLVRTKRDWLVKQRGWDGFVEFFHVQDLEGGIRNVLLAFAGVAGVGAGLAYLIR
As to the kind of experiment: surface plasmon resonance.

One may read the Kd as the equilibrium constant for the complex coming apart. Molecule EDIIRNIARHLAQVGDSMDRSI [BID BH3 peptide] gave a Kd of 134 nM. In the case of GRLAEVCTVLLRLGDELEQIRPSVY [BOK BH3 peptide BH3], the affinity, expressed as Kd, was 3440 nM.
